From publication doi:10.1101/410217 (bioRxiv, 2018)

Target: T1, human parechovirus 3 (HPeV3) isolate A308/99 virion (Human parechovirus 3, isolate A308/99, strain)
T1 chain 1: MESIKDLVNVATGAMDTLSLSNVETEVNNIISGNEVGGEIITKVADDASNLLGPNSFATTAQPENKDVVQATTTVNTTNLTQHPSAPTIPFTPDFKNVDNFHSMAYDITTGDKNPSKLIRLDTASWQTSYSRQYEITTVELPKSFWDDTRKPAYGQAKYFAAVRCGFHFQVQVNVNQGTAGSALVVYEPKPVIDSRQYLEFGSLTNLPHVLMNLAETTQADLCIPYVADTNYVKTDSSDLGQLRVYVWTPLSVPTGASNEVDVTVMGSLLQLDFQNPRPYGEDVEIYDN
T1 chain 2: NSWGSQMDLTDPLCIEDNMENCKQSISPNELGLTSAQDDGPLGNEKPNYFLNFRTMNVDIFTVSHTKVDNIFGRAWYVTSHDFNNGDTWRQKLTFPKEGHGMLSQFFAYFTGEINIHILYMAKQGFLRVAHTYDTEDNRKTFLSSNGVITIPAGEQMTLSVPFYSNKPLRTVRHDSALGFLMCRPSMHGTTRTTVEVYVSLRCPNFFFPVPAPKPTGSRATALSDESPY
T1 chain 3: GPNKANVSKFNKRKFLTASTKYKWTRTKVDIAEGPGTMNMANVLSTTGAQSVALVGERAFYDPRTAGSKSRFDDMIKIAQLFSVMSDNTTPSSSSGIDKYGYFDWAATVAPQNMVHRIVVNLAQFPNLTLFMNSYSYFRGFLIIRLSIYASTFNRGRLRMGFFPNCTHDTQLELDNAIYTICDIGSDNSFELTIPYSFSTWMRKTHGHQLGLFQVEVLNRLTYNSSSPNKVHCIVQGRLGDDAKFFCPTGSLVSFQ
Test: cryo-EM structure

B1: Fab fragment of human monoclonal antibody AT12-015 (Fab, V domains shown)
VH: EVQLLESGGGLVQPGGSLRLSCAASGFTFSSYAMSWVRQAPGKGLEWVSAISGGGDSRYYADSVKGRFTISRDNSKNTLYLQMNSLGAEDTALYYCAKRLGRVAEYYFDYWGQGTLVTVSP
VL: DIQMTQSPSTLSASVGDRVTITCRTSQSISNWLAWYQQKPGKAPKLLIYQASTLENGVPSRFTGSGSGTEFSLTISSLQPDDFATYYCQQYNNYMALTFGGGTKVEIK
  stoichiometry N: 60 Fab per virion
